Assay results taken from patent US6967100B2, “Pancreatic islet cell growth factors” (The Walter and Eliza Hall Institute of Medical Research, priority 2000, dated 2005).

B1: BMP 5: recombinant human BMP 5 purchased from R&D Systems (protein, UniProt P22003 317-454, looked up)
Bone morphogenetic protein 5: AANKRKNQNRNKSSSHQDSSRMSSVGDYNTSEQKQACKKHELYVSFRDLGWQDWIIAPEGYAAFYCDGECSFPLNAHMNATNHAIVQTLVHLMFPDHVPKPCCAPTKLNAISVLYFDDSSNVILKKYRNMVVRSCGCH
B2: KGF: candidate growth factor (protein, UniProt P21781 32-194, looked up)
Fibroblast growth factor 7: CNDMTPEQMATNVNCSSPERHTRSYDYMEGGDIRVRRLFCRTQWYLRIDKRGKVKGTQEMKNNYNIMEIRTVAVGIVAIKGVESEFYLAMNKEGKLYAKKECNEDCNFKELILENHYNTYASAKWTHNGGEMFVALNQKGIPVRGKKTKKEQKTAHFLPMAIT
B3: BMP 6/6: recombinant mouse BMP 6, myc epitope tagged, CHO cell conditioned medium; called BMP 6 in b118 (protein, UniProt P20722 372-510, looked up)
Bone morphogenetic protein 6: SASSRRRQQSRNRSTQSQDVSRGSGSSDYNGSELKTACKKHELYVSFQDLGWQDWIIAPKGYAANYCDGECSFPLNAHMNATNHAIVQTLVHLMNPEYVPKPCCAPTKLNAISVLYFDDNSNVILKKYRNMVVRACGCH
modifications: myc epitope tag
notes: called BMP 6
B4: BMP 7/7: BMP 7 homodimer, epitope-tagged recombinant mouse BMP in CHO cell conditioned medium (protein, UniProt P23359 292-430, looked up)
Bone morphogenetic protein 7: STGGKQRSQNRSKTPKNQEALRMASVAENSSSDQRQACKKHELYVSFRDLGWQDWIIAPEGYAAYYCEGECAFPLNSYMNATNHAIVQTLVHFINPDTVPKPCCAPTQLNAISVLYFDDSSNVILKKYRNMVVRACGCH
modifications: epitope tag
B5: betacellulin: candidate growth factor (protein, UniProt P35070 32-111, looked up)
Betacellulin: DGNSTRSPETNGLLCGDPEENCAATTTQSKRKGHFSRCPKQYKHYCIKGRCRFVVAEQTPSCVCDEGYIGARCERVDLFY
B6: Activin A: recombinant activin A from R&D Systems (protein, UniProt P08476 311-426, looked up)
Inhibin beta A chain: GLECDGKVNICCKKQFFVSFKDIGWNDWIIAPSGYHANYCEGECPSHIAGTSGSSLSFHSTVINHYRMRGHSPFANLKSCCVPTKLRPMSMLYYDDGQNIIKKDIQNMIVEECGCS
B7: BMP 4/4: BMP 4 homodimer, epitope-tagged recombinant mouse BMP in CHO cell conditioned medium (protein, UniProt P21275 293-408, looked up)
Bone morphogenetic protein 4: SPKHHPQRSRKKNKNCRRHSLYVDFSDVGWNDWIVAPPGYQAFYCHGDCPFPLADHLNSTNHAIVQTLVNSVNSSIPKACCVPTELSAISMLYLDEYDKVVLKNYQEMVVEGCGCR
modifications: epitope tag
B8: BMP 4/7: BMP 4 and BMP 7 heterodimer, recombinant mouse, CHO cell conditioned medium (protein, UniProt P21275 293-408; P23359 292-430, looked up)
Bone morphogenetic protein 4: B7 Bone morphogenetic protein 4
Bone morphogenetic protein 7: B4 Bone morphogenetic protein 7
modifications: heterodimer
notes: BMP 4 and BMP 7 heterodimer, recombinant mouse, CHO cell conditioned medium
B9: BMP 4/6: BMP 4 and BMP 6 heterodimer, recombinant mouse, CHO cell conditioned medium (protein, UniProt P21275 293-408; P20722 372-510, looked up)
Bone morphogenetic protein 4: B7 Bone morphogenetic protein 4
Bone morphogenetic protein 6: B3 Bone morphogenetic protein 6
modifications: heterodimer
notes: BMP 4 and BMP 6 heterodimer, recombinant mouse, CHO cell conditioned medium

Tests used:
Type in all cases: cell-based
[1] = tested on: E15.5 CBA mouse fetal pancreas cells; assay: Cystic colony formation of E15.5 fetal mouse pancreas cells in laminin-1 overlay culture; details: BMP alone
[2] = tested on: E15.5 CBA mouse fetal pancreas cells; assay: as above
Protocol: Pancreata were dissected from embryonic day (E)15.5 CBA mouse fetuses and dissociated into single cells as described (Jiang et al., 1999). Briefly, dissected pancreas was digested with trypsin/EDTA for 15 minutes at 37° C. in a shaking water bath. Cells were counted in a haemocytometer and viability determined by trypan blue dye exclusion. Each fetal pancreas yielded 50,000 viable cells (48,509±11,299, n=14). Dissociated cells were plated in 8 well chamber slides (Nunc, Naperville, USA) at 7.5×10^4 cells/well in 0.3 ml AIM V medium supplemented with N-2 (1:100, Gibco BRL Life Technologies, Gaithersburg, USA), 500 UI/ml penicillin and 500 μg/ml streptomycin. Laminin-1 (160 μg/ml), purified from murine Engelbreth-Holm-Swarm tumor basement membrane (Becton Dickinson Labware, Bedford, USA), was overlayed on cells in the presence of various growth factors. Cultures were incubated in 10% CO2 90% air at 37° C., for up to 6 days. Recombinant human BMP 6 and BMP 5, recombinant human TGF-β1 and recombinant activin A were purchased from R&D Systems (Minneapolis, USA). These factors, dissolved at a concentration of 10 ng/μl in mouse tonicity phosphate buffered saline (PBS) containing 0.1% w/v bovine serum albumin (BSA), were added at the start of culture. Phase contrast images of colonies were photographed with Olympus IX70 digitized camera.
Colony formation was assessed at day 6 of culture. A colony was defined as a cellular sphere ≧30 μm in diameter, which contained more than 20 cells. The number of colonies per well was counted directly under a inverted microscope at ×10. Colony counts were performed using a blind design.

[3] = tested on: 13.5 dpc fetal mouse pancreas cells; assay: Colony formation of 13.5 dpc fetal mouse pancreas cells cultured with BMPs and laminin-1; details: for proliferation or colony formation, candidate growth factors individually: 13.5 dpc fetal pancreas cells; for proliferation and colony formation of fetal pancreas cells: in the presence (but not absence) of laminin-1, four days culture
Protocol: Dissociated fetal pancreas cells were prepared from 13.5 dpc CBA mice. Pregnant mice at 13.5 dpc were killed by cervical dislocation and fetuses collected into ice cold sterile mouse tonicity phosphate-buffered saline (MTPBS). Fetal pancreata were harvested under an Olympus dissection microscope into RPMI 1640 medium and dissociated in a shaking water bath at 37° C. for 11 mins in Ca^2+/Mg^2+-free PBS containing 0.5% v/v trypsin/EDTA as described for testis by Bucci et al. (1986). After dissociation, trypsin was inactivated by addition of 8% w/v bovine serum albumin (BSA, fraction V) (Sigma, St. Louis, USA). The tissue was aspirated several times in a pipette, passed through a 27 gauge needle to make a single cell suspension and then rinsed in 10 μg/ml DNAse I (Promega, Madison, USA) in RPMI 1640 for 10 mins to reduce cellular aggregates. Cell suspensions were filtered through a 70-100 μm steel mesh, centrifuged at 400×g for 5 mins and the supernatant discarded. The cell pellet was resuspended in HYBRIDOMA medium and stored on ice. Cells were counted under a haemocytometer and viability was determined by exclusion of 0.2% v/v trypan blue dye. Pancreatic cells were plated in 8 chamber slides (Nunc) at 1.5×10^4 cells/well in 0.3 ml HYBRIDOMA medium 500 UI/ml penicillin and 500 μg/ml streptomycin. The cells were cultured in 10% v/v CO2, 90% v/v air at 37° C. with 100% humidity for four days in the presence of factors such as laminin-1 and BMPs.
After four days in culture, cells were washed twice with warm MT-PBS and fixed with a 4% v/v paraformaldehye for 10 mins. In some cases, 100 μM BrdU was added to label proliferating cells 12 hours before fixation and detection with monoclonal antibody to BrdU and FITC-labelled rabbit anti-mouse immunoglobulin. For immunoperoxidase staining, endogenous peroxidase was blocked by 3% v/v H2O2 in methanol for 8 mins and, prior to addition of primary antibody, non-specific protein binding was blocked by incubation for at least 30 mins in MTPBS containing 2% w/v BSA or 2% v/v normal rabbit serum. Controls were performed by replacing primary antibody with pre-immune serum from the appropriate species. Tissue sections or cells were incubated with primary antibodies for 90 min RT, followed by three thorough washes with MTPBS. For immunoperoxidase staining, horseradish peroxidase-conjugated rabbit anti-guinea pig, swine anti-rabbit or rabbit anti-mouse immunoglobulins (Dako) diluted 1:80 were added for 30 mins at RT followed by thorough washes; colour was developed with 3,3′-diaminobenzidine/H2O2 for 4-8 mins and slides counterstained with haematoxylin.
A pancreatic cell colony was defined as a spherical collection of 20 cells. Colonies were counted under a×10 power objective with an eyepiece graticule.

C2C12 myoblasts = assay: C2C12 cell BMP bioassay (transformation of myoblasts into alkaline phosphatase-containing osteoblasts); details: for BMP activity of conditioned medium (alkaline phosphatase activity of C2C12 cells): conditioned medium of stably transfected CHO cells, compared to medium of untransfected CHO cells
Protocol: BMP activity was measured in the C2C12 cell bioassay, in which BMPs transform C2C12 myoblasts into alkaline phosphatase-containing osteoblasts (Katagiri et al., 1994). Briefly, CHO cells were plated at a density of around 5×10^6 per 75 cm^2 flask in serum-free HYBRIDOMA medium (Gibco BRL Life Technology) (SFHM) containing 10% v/v FCS. Once the cells had reached confluency, the medium was removed, the cells washed twice with SFHM and 10 ml of SFHM then added to each flask. The cells were cultured for four days and the conditioned medium collected, filtered through a 2 micron filter and stored at 4° C.
2×10^3 C2C12 cells were plated into each well of a 96-well tissue culture plate in DME/10% v/v FCS. Twenty-four hours later, the medium was removed and replaced with 100 μl SFHM/1% v/v FCS. 50 μl of each conditioned medium was added in duplicate to the top row of the 96-well plate and the volume of these wells then made up to 200 μl. Using a multi-channel pipette, 100 μl from each well was then serially transferred to subsequent rows thus diluting the conditioned medium 2-fold with each transfer. After incubation for five days, the media were discarded and the cells washed with normal saline. Cells were lysed for 10 mins at room temperature (RT) in 100 μl 0.5% v/v TritonX-100 and 100 mM diethanolamine (pH 9.5) in normal saline. To each well was then added an aqueous solution containing 10 mM diethanolamine, 1 mg/ml p-nitrophenyl phosphate (PNPP) and 0.5 mM MgCl2. The yellow reaction product catalyzed by alkaline phosphatase was allowed to develop for 10-60 mins before reading absorption at 415 nm.

| Molecule | proliferation or colony formation, candidate growth factors individually [3] | proliferation and colony formation of fetal pancreas cells [3] | BMP activity of conditioned medium (alkaline phosphatase activity of C2C12 cells) (C2C12 myoblasts) | also measured |
| --- | --- | --- | --- | --- |
| B1 | – | – | – | colony formation in the absence of laminin-1 [1]: no effect; concentration of maximal stimulation of colony formation ([2]; laminin-1 160 μg/ml, day 6, fewer colonies at higher concentrations): 100 ng/mL; formation of cystic colonies in the presence of laminin-1 ([2]; laminin-1 160 μg/ml, up to 6 days): synergized with laminin-1 to promote formation of cystic colonies |
| B2 | unable to promote proliferation or colony formation | – | – | – |
| B3 | – | stimulated fetal pancreas cells to proliferate and form colonies | – | – |
| B4 | – | stimulated fetal pancreas cells to proliferate and form colonies | significant activity | – |
| B5 | unable to promote proliferation or colony formation | – | – | – |
| B6 | unable to promote proliferation or colony formation | – | – | BMP 6-induced colony formation ([2]; 100 ng/ml against BMP 6 10 ng/ml, laminin-1 160 μg/ml, p<0.01 (FIG. 10B)): antagonized; colony formation relative to laminin-1 alone ([2]; 100 ng/ml, laminin-1 160 μg/ml (FIG. 10A)): suppressed colony formation to levels below that observed with laminin-1 alone |
| B7 | – | did not promote colony formation | significant activity | – |
| B8 | – | stimulated fetal pancreas cells to proliferate and form colonies | significant activity | relative BMP bioactivity (C2C12 myoblasts; FIG. 3, heterodimer versus homodimer): more active than 4/4 homodomers |
| B9 | – | did not promote colony formation | significant activity | – |
